The values below come from PMC3438448, “Lis1 Acts as a “Clutch” between the ATPase and Microtubule-Binding Domains of the Dynein Motor” (Cell, 2012).

This data set deals with the molecule itself. Nature of the data set: cross-linking; 0.5 μM protein ± 0.05% glutaraldehyde, 5 min, ambient temperature; 30 mM HEPES pH 7.2, 50 mM potassium acetate; SDS-PAGE; control pretreated with 4% LDS.

B1: Lis1 (S. cerevisiae Pac1) (natural protein, UniProt P39946 1-494, looked up)
chain: MTNWQQQLPLTDTQKNELDKSVLRYLNWNYKQTVRHEHAQDYESVRHAIVTLSGFLLQESVDRQEFISNNDTSNESMVDIDELLLPKKWNSIVRLQKKIIELEQNTETLVSQIKDLNTQVSELAQFKPTTSNGTSAHNVLKWIPRNLPSCLINVESSVTSVKLHPNLPIVFVATDHGKLYAFDLFNYTIPLASLQSHTKAITSMDVLFTNYTNSSKKNYLVIVTASKDLQIHVFKWVSEECKFQQIRSLLGHEHIVSAVKIWQKNNDVHIASCSRDQTVKIWDFHNGWSLKTFQPHSQWVRSIDVLGDYIISGSHDTTLRLTHWPSGNGLSVGTGHEFPIEKVKFIHFIEDSPEIRFRTPSTDRYKNWGMQYCVSASRDRTIKIWEIPLPTLMAHRAPIPNPTDSNFRCVLTLKGHLSWVRDISIRGQYLFSCADDKSVRCWDLNTGQCLHVWEKLHTGFVNCLDLDVDFDSNVTPRQMMVTGGLDCKSNVFMR
notes: Lis1 ortholog Pac1 (PAC1), S. cerevisiae; also called dimeric Lis1; intact Lis1; source: S. cerevisiae, expressed from the genomic locus, purified (Ni-NTA, IgG sepharose, TEV cleavage)
A word on the stoichiometry N: it is a count of units in the complex or per binding partner. Consider B1, for which the “stoichiometry N” value was 2.
